Test results published in article PMC12700547, “Auranofin attenuates TOPBP1-mediated ATR replication stress response and improves chemotherapeutic response in breast tumor models” (The Journal of Clinical Investigation, 2025).
Values belong to the molecule of their own block, whether it stands above or below them. Where no end group is shown, it is not given here. [ ]: non-standard residue; d: D form. pT = C[C@@H](OP(=O)(O)O)[C@H](N)C(=O)O

Key:
auranofin = assay: BLI; details: auranofin 25, 50, 100, 200 µM; n = 2; parent: 2.358E-5 M
[1] = target: T1, His-tagged recombinant TOPBP1 BRCT 7–8 (UniProt Q92547 1264-1493); assay: BLI; Octet RED96; biotin-peptides immobilized on biosensors; His-tagged BRCT 7–8 (1 μM) alone or preincubated with a serial dilution of compound (auranofin) as analyte; PBS with 0.1% BSA, 0.02% Tween-20, 1% DMSO; 2 minutes of dissociation; 1:1 binding model with local fit; details: both partners purified
T1 construct: The cited crystal structures 7CMZ and 3AL3 hold BRCT 7–8; also called BRCT 7–8/WT; His-tagged BRCT 7–8; source: E coli cells, purified
T1 sequence (Q92547 1264-1493): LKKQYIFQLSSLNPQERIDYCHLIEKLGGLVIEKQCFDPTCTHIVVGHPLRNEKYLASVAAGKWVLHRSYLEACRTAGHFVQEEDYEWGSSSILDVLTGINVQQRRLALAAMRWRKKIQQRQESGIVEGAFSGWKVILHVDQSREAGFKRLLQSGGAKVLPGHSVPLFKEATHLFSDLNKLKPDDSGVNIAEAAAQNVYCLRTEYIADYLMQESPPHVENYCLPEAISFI

Kd (auranofin): 4.22 mM
Molecule: His-tagged recombinant TOPBP1 BRCT 7–8 (from UniProt Q92547) F1411A

binding result [1]: binds
Molecule: GACFKDAEYIYPSLESDDDDPA (not fully specified (N-terminus); also: biotin, position not given here, also called PHF8/APS peptide) [biotin-APS peptide (acidic patch sequence of PHF8)]

binding result [1]: binds
B1: biotin-Y989 peptide (Y989-containing peptide of the TOPBP1 AAD) (peptide)
peptide: ECKHLPESLYPHTYN
modifications: not fully specified (N-terminus); printed as ECKHLPESLY_989_PHTYN; also: biotin, position not given here

binding result [1]: binds
B2: biotin-F1071 peptide (F1071-containing peptide of the TOPBP1 AAD) (peptide)
peptide: TLEMRENFQKQLQEI
modifications: not fully specified (N-terminus); printed as TLEMRENF_1071_QKQLQEI; also: biotin, position not given here

binding result [1]: binds
B3: biotin-pFANCJ peptide (phosphorylated Thr1133 containing peptide of FANCJ) (peptide)
peptide: EAEDESIYF[pT]PELYDPEDT
modifications: not fully specified (N-terminus); printed as EAEDESIYF(pT)PELYDPEDT; also: biotin (site not given here)
notes: also called phosphorylated FANCJ peptide
